B1: Ras GTPase-activating protein 1, residues 281 to 341; numbered along this chain, P20936 (parent)
chain: RRRVRAILPYTKVPDTDEISFLKGDMFIVHNELEDGWMWVTNLRTDEQGLIVEDLVEEVGR

± gives the uncertainty stated by the source.

Variants of B1 are the subject of this series. The series is described as follows: abundance fitness (aPCA) (normalised: wild type 0, dead -1); higher = more abundant; growth selection in yeast, the domain comes from the species named. As to conditions: Homo sapiens.
As for RRRVRAILPYTKVPDTDEISFLKGDMFIVHNELEDGWMWVTNLRTDDQGLIVEDLVEEVGR [E47D], the abundance fitness is -0.104 ± 0.028.

With RRRVRAILPYTKVPDTDEISFLKGDMFIVHNEGEDGWMWVTNLRTDEQGLIVEDLVEEVGR [L33G], the abundance fitness was -0.082 ± 0.027.

Regarding RRRVRAILPYTKVPDTEEISFLKGDMFIVHNELEDGWMWVTNLRTDEQGLIVEDLVEEVGR [D17E], the abundance fitness is -0.006 ± 0.053. For RRRVRAILPYTKVPDTLEISFLKGDMFIVHNELEDGWMWVTNLRTDEQGLIVEDLVEEVGR [D17L], the abundance fitness is -0.065 ± 0.033. As for RRRVRAILPYTKVPDTDEISFLKGDMSIVHNELEDGWMWVTNLRTDEQGLIVEDLVEEVGR [F27S], the abundance fitness is -0.798 ± 0.036. Consider RRRVRAILPYTKVPDTDEISFLKGDMCIVHNELEDGWMWVTNLRTDEQGLIVEDLVEEVGR [F27C], for which the abundance fitness is -0.485 ± 0.029. Consider RRRVRAILPYTKVPDTDEISFLKGDMTIVHNELEDGWMWVTNLRTDEQGLIVEDLVEEVGR [F27T], for which the abundance fitness is -0.914 ± 0.069.

For the variant RRRVRAILPFTKVPDTDEISFLKGDMFIVHNELEDGWMWVTNLRTDEQGLIVEDLVEEVGR [Y10F], the abundance fitness was -0.577 ± 0.042. With RRRVRAILMYTKVPDTDEISFLKGDMFIVHNELEDGWMWVTNLRTDEQGLIVEDLVEEVGR [P9M], the abundance fitness was -0.308 ± 0.082. In the case of RRRVRAILPYTKVPDTDEISFLKGDMFIVHNELKDGWMWVTNLRTDEQGLIVEDLVEEVGR [E34K] it was -0.026 ± 0.064; in that of RRRVRAILPYTKVPDTDEISFLKGDMFIVHNELADGWMWVTNLRTDEQGLIVEDLVEEVGR [E34A], 0.023 ± 0.04; in that of RRRVRAILPYTKVPDTDEISFLKGDMFIVHNELEDGWMWVTNLRTDEQGLGVEDLVEEVGR [I51G], -0.761 ± 0.039.

RRRVRAILPYTKVPDTDEISFLKGDMFIVHNELEDGWMWVTNLRTDEQGLKVEDLVEEVGR [I51K]: the abundance fitness was -1.09 ± 0.12. In the case of RRRVRAILPYTKVPDTDEISFLKGDMFIVHNELEMGWMWVTNLRTDEQGLIVEDLVEEVGR [D35M] it was -0.142 ± 0.069; in that of RRRVRAILPYTKVPDTDEISFLKGDMFIVHNELEEGWMWVTNLRTDEQGLIVEDLVEEVGR [D35E], -0.047 ± 0.062.

As for RRRVRAILPYTKVPDTDEISFLKGDMFIVHNELEPGWMWVTNLRTDEQGLIVEDLVEEVGR [D35P], the abundance fitness was -0.126 ± 0.044.

In the case of RRRVRAILPYTKVPDTDEISFLKGDMFIVHNELEGGWMWVTNLRTDEQGLIVEDLVEEVGR [D35G], the abundance fitness is 0.015 ± 0.03. In the case of RRRVRAILPYTKVPDTDEILFLKGDMFIVHNELEDGWMWVTNLRTDEQGLIVEDLVEEVGR [S20L] it was -1.07 ± 0.095; in that of RRRVRAILPYTKVPDTDEISFLKGDMFIVHNELEDGWMWNTNLRTDEQGLIVEDLVEEVGR [V40N], -0.987 ± 0.061.

Consider RRRVRAILPYTKVPDTDEISFLKGDMFIVHNELEDGWMWQTNLRTDEQGLIVEDLVEEVGR [V40Q], for which the abundance fitness is -1.01 ± 0.21. For RRRVRAILPYTKVPDTDEISFLKGDMFIVHNELEDGWMWWTNLRTDEQGLIVEDLVEEVGR [V40W] the value was -0.917 ± 0.14; for RRRVRAILPYTKVPDTDEISFLKGDMFIVHNELEDGWMWLTNLRTDEQGLIVEDLVEEVGR [V40L], -0.935 ± 0.062. For RRRVRAILPYTKVLDTDEISFLKGDMFIVHNELEDGWMWVTNLRTDEQGLIVEDLVEEVGR [P14L] the value was -0.188 ± 0.032; for RRRVRAILPYTKVCDTDEISFLKGDMFIVHNELEDGWMWVTNLRTDEQGLIVEDLVEEVGR [P14C], -0.142 ± 0.026; for RRRVRAILPYTIVPDTDEISFLKGDMFIVHNELEDGWMWVTNLRTDEQGLIVEDLVEEVGR [K12I], -1.01 ± 0.062. In the case of RRRVRAILPYTKVPDTDEISFLKGDMFIVHNELEDGWMWVTNLRFDEQGLIVEDLVEEVGR [T45F] it was -0.796 ± 0.042; in that of RRRVRAILPYTKVPDTDELSFLKGDMFIVHNELEDGWMWVTNLRTDEQGLIVEDLVEEVGR [I19L], -0.004 ± 0.03.

Regarding RRRVRAILPYTKVPDTDECSFLKGDMFIVHNELEDGWMWVTNLRTDEQGLIVEDLVEEVGR [I19C], the abundance fitness was -0.451 ± 0.028. As to RRRVRMILPYTKVPDTDEISFLKGDMFIVHNELEDGWMWVTNLRTDEQGLIVEDLVEEVGR [A6M], the abundance fitness is -0.804 ± 0.05.

Consider RRRHRAILPYTKVPDTDEISFLKGDMFIVHNELEDGWMWVTNLRTDEQGLIVEDLVEEVGR [V4H], for which the abundance fitness was -0.739 ± 0.03. Take RRRVRATLPYTKVPDTDEISFLKGDMFIVHNELEDGWMWVTNLRTDEQGLIVEDLVEEVGR [I7T]: the abundance fitness was -0.088 ± 0.047. In the case of RRRVRALLPYTKVPDTDEISFLKGDMFIVHNELEDGWMWVTNLRTDEQGLIVEDLVEEVGR [I7L] it was -0.066 ± 0.03; in that of RRRVRAILPYTKVPDTDEISFLKGDMFITHNELEDGWMWVTNLRTDEQGLIVEDLVEEVGR [V29T], -0.879 ± 0.059; in that of RRRVRAILPYTKVPDTDEISFLKGDMFIDHNELEDGWMWVTNLRTDEQGLIVEDLVEEVGR [V29D], -0.764 ± 0.043. Turning to RRRVRAILPYTKVPDTDEISFLKGDMFIVHNELEDGWMWVTNLRTDEQGHIVEDLVEEVGR [L50H], the abundance fitness was -0.426 ± 0.036. As to RRRVRAILPYTKVPDTDEISFLKGDMFIVHNELEDGWMWVTNLRTDEQGIIVEDLVEEVGR [L50I], the abundance fitness is -0.03 ± 0.026. With RRRVRAILPYTKVPDTDEISFLKGDMFIVHNELEDGWMWVTNGRTDEQGLIVEDLVEEVGR [L43G], the abundance fitness is -0.694 ± 0.041.

As to RRRVRAILPYTKVPDTDEISFLKGDMFIVHNELEDGWMWVTNCRTDEQGLIVEDLVEEVGR [L43C], the abundance fitness was determined as 0.007 ± 0.028.

Take RRRVRAILPYTKVPDTDEISFLKGDMFIVHNELEDVWMWVTNLRTDEQGLIVEDLVEEVGR [G36V]: the abundance fitness is -0.876 ± 0.044. In the case of RRRVRAILPYTKVPDTDEISFLKGDMFIVHNELEDGWMWVCNLRTDEQGLIVEDLVEEVGR [T41C] it was -0.425 ± 0.028. For RRRVRAILPYTKVPDTDEISFLKGDMFIVHNELEDGWMWVPNLRTDEQGLIVEDLVEEVGR [T41P] the value was -0.973 ± 0.096. Regarding RRRVRAILPYTKVPDTDEISFLKGDMFIVHNELEDGWMWVWNLRTDEQGLIVEDLVEEVGR [T41W], the abundance fitness was -0.378 ± 0.063. On to RRRVRAILPYTKVPDTDEISFLKGDMFIVHNELEDGWMWVVNLRTDEQGLIVEDLVEEVGR [T41V], for which the abundance fitness is -0.289 ± 0.028. In the case of RRRVRAILPYTKVPDTDEISFLKGDMFIVHNELEDGWMWVINLRTDEQGLIVEDLVEEVGR [T41I] it was -0.594 ± 0.038.

The values are drawn from the Human Domainome abundance scans (Beltran et al. 2025).
